Experimental data as given in patent publication US20220396632A1 (VERSEAU THERAPEUTICS, published 2022).
Values belong to the binder of their own block, whether it stands above or below them. Non-standard residues stand in square brackets, D forms with d. No end group written: not given here. *: point of attachment. Biotin = O=C1N[C@H]2[C@H](CS[C@H]2CCCCC(=O)*)N1; sY = N[C@@H](Cc1ccc(OS(=O)(=O)O)cc1)C(=O)O

What was measured:
[1] = target: T1, Scrambled Y42,52,63(SO3) PSGL-1(42-62) biotin peptide (sulfotyrosine at peptide positions 1, 11 and 22; C-terminal Lys-biotin); assay: ELISA, immobilized biotin peptide
T1 peptide: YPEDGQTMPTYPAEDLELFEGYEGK
Protocol: (§1) A typical ELISA was performed by coating high binding half-well plates (Corning Cat. #3690) with 3 ug/mL/25 ul per well of biotinylated N-terminal PSGL-1 peptides, which incorporated residues 42 to 62 of the protein, in PBS, pH 7.4, overnight at 4° C. The peptide was unmodified or contained sulfated tyrosine at all 3 tyrosine positions (46, 48, and 51) or at one position (tyr51) (Table 7).
(§2) PSGL-1 protein or peptide served as a positive control. […] […] […] For each antibody, duplicate values were averaged and average assay background was subtracted.

[2] = target: T2, Biotin PSGL-1(42-62) peptide, unmodified (human, C-terminal Lys-biotin); assay: ELISA, immobilized biotin peptide
T2 construct: Residues 42-62 followed by GGGK-biotin; also called WT; wild-type
T2 peptide: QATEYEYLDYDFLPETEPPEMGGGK
Protocol: as §1, §2

[3] = target: T3, Biotin Y46,48,51(SO3) PSGL-1(42-62) peptide (human, sulfotyrosine at Y46, Y48 and Y51; C-terminal Lys-biotin); assay: ELISA, immobilized biotin peptide
T3 construct: also called fully sulfated N-terminal PSGL-1 peptide
T3 peptide: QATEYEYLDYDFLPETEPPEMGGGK
Protocol: as §1, §2

SulfoCCK biotin peptide = target: T4, SulfoCCK biotin peptide (human); assay: ELISA, 50 nM mAb
T4 construct: also called sulfotyrosine CCK peptide
T4 peptide: SHRISDRD[sY]MGWMDFGGK(Biotin)
Protocol: (§3) Recombinant PSGL-1-hFc1 chimera protein consisting of PSGL-1's extracellular domain (ECD) served as a positive control. […] Primary antibody was added (25 ul per well) in duplicate at 50 nM in assay buffer (blocking buffer containing 0.05% Tween®20) into test and control (just blocked) wells and the plate incubated for 45 min at 37° C.

[4] = target: T5, Sulfotyrosine CCR2b biotin peptide (human); assay: ELISA, 50 nM mAb
T5 construct: also called CCR2b peptide
T5 peptide: TTFFD[sY]D[sY]GAPSHGGK(Biotin)
Protocol: as §3

[5] = target: T6, Human fibrinogen protein (ThermoFisher, RP-43142) (human, UniProt P02671 20-629; P02675 31-491; P02679 27-453, limits assumed, natural sulfotyrosines); assay: ELISA, 50 nM mAb
T6 construct: mature; Native dimer with 3 pairs of non-identical chains; also called gamma-fibrinogen; γ fibrinogen protein
T6 sequence (looked up) 1: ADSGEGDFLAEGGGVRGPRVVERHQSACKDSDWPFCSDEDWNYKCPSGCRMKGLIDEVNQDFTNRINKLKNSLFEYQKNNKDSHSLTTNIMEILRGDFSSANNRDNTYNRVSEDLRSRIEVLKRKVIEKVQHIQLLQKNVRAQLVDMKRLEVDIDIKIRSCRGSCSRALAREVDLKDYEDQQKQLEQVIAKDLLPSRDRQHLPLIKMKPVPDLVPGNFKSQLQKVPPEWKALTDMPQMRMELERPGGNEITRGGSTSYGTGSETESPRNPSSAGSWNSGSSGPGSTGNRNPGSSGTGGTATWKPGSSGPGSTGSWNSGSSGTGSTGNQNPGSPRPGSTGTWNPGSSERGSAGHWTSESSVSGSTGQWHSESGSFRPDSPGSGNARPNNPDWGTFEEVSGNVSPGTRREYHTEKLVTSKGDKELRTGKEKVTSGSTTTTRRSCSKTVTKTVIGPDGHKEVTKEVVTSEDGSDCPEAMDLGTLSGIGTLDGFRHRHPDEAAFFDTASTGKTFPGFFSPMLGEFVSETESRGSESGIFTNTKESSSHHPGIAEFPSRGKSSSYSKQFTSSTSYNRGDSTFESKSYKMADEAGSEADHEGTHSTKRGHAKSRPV
T6 sequence (looked up) 2: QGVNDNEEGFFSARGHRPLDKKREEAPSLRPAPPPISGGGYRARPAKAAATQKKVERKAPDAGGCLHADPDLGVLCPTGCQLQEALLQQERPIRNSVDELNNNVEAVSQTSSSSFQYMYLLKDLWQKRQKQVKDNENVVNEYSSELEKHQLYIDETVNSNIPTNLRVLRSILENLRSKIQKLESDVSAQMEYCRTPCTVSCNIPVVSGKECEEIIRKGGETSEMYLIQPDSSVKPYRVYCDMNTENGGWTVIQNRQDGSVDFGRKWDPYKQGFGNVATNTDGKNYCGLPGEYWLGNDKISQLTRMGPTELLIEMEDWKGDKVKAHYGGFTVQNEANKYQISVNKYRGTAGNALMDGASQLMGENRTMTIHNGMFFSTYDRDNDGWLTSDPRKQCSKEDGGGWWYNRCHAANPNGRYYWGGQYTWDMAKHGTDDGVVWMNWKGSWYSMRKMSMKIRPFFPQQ
T6 sequence (looked up) 3: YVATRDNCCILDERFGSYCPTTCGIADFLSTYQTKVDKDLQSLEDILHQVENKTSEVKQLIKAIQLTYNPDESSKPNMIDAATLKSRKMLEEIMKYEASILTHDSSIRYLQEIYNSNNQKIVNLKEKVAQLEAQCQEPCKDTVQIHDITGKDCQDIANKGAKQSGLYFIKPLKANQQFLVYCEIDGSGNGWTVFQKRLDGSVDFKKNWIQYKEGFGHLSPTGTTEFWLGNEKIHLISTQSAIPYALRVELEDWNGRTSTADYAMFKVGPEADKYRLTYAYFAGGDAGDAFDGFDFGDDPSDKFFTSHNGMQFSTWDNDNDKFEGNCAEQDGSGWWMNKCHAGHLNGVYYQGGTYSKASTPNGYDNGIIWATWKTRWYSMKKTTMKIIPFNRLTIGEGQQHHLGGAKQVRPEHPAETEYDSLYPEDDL
Protocol: as §3

[6] = target: T7, Human complement C4 protein (Millipore Sigma, Cat. 204886) (human, UniProt P0C0L4 20-675; P0C0L4 680-1446; P0C0L4 1454-1744, limits assumed, natural sulfotyrosines); assay: ELISA, 50 nM mAb
T7 construct: mature
Protocol: as §3

[7] = target: T8, Sulfotyr fibrinogen γ peptide (not fully specified; Y8 and Y12 sulfated (SO3); C-terminal biotin); assay: ELISA, 50 nM mAb
T8 construct: also called Fibrinogen gamma peptide; human sulfotyrosinylated fibrinogen peptide
T8 peptide: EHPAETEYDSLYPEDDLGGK
Protocol: as §3

SulfoTyr C4 peptide = target: T9, SulfoTyr C4 peptide (not fully specified; Y4, Y7 and Y9 sulfated (SO3); C-terminal biotin); assay: ELISA, 50 nM mAb
T9 construct: also called C4 alpha chain peptide; human sulfotyrosinylated C4 peptide
T9 peptide: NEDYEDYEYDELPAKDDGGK
Protocol: as §3

[8] = target: T10, Recombinant human PSGL-1(ECD)-hFc1 (R&D Systems, Cat. 3345-PS) (human, UniProt Q14242 42-305); assay: ELISA, 50 nM mAb
T10 construct: Bought; Gln42-Val295 counted on AAC50061; also called PSGL-1-Fc; PSGL-1-hFc1 chimera; not shown: human IgG1 Fc, Pro100-Lys330
T10 sequence: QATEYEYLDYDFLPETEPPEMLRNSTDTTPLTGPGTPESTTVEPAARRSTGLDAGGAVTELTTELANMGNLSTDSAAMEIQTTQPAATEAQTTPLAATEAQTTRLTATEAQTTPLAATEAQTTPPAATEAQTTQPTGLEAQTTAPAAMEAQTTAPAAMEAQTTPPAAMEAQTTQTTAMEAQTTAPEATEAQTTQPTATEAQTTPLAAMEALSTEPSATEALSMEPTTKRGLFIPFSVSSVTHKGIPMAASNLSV
Protocol: as §3

[9] = target: T11, Sulfotyrosine D6 biotin peptide (human); assay: ELISA, 50 nM mAb
T11 construct: also called D6 peptide
T11 peptide: ENSSFY[sY][sY]D[sY]LDEVAFGGK(Biotin)
Protocol: as §3

T7 sequence (P0C0L4 20-675 limits assumed, form in doubt, chain 1 of 3): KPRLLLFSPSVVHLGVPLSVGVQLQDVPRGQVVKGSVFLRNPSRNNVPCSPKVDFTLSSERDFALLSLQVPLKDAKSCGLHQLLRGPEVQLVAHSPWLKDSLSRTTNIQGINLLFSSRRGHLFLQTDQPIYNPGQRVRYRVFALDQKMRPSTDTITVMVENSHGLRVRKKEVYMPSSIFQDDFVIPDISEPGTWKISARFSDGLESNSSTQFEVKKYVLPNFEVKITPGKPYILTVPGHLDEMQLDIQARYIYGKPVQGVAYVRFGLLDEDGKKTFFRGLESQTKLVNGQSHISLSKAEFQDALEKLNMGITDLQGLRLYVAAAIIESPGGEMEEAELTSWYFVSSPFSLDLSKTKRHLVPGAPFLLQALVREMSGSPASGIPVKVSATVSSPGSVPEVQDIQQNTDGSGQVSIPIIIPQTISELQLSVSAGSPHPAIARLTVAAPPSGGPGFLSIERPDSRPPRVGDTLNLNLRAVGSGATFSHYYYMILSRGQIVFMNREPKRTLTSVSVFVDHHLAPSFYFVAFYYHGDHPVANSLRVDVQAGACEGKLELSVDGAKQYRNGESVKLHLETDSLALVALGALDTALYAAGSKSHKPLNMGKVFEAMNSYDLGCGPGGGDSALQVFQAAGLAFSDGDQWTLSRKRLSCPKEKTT
T7 sequence (P0C0L4 680-1446 limits assumed, form in doubt, chain 2 of 3): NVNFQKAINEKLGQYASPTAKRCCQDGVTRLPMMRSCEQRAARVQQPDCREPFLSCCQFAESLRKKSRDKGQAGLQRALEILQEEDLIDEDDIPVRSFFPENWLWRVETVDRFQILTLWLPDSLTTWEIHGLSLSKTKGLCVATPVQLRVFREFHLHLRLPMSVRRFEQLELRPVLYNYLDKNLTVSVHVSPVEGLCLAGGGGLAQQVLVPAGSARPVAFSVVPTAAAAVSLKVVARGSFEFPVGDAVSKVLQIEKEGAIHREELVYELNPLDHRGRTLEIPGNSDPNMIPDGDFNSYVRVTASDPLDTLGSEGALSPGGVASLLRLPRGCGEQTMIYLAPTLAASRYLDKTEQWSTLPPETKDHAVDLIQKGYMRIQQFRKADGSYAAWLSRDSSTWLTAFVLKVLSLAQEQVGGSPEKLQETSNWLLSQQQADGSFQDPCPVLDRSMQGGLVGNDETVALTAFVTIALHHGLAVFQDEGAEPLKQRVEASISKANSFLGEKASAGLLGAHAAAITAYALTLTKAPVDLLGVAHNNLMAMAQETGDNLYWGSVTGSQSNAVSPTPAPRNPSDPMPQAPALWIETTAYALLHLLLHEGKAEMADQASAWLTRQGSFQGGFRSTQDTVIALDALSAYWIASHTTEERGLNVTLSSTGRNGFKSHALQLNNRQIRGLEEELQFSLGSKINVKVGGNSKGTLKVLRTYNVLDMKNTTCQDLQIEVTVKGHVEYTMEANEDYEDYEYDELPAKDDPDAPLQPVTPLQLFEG
T7 sequence (P0C0L4 1454-1744 limits assumed, form in doubt, chain 3 of 3): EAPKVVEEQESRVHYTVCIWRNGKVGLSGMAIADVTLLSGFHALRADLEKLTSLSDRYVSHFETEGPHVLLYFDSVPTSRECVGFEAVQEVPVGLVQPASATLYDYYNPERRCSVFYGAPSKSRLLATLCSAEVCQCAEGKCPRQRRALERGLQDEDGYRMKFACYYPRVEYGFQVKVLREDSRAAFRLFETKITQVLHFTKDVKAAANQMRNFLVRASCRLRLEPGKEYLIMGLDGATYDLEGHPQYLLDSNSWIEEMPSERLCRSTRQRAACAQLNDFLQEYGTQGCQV

- binding result [1]: no binding (tested: 20 nM)
- EC50 [2]: > 500 nM
- A450nm, 20 nM mAb [3]: 2.58 A450nm
- EC50 [3]: 3.7 nM
- binding normalized to PSGL-1 (SulfoCCK biotin peptide): 1.66
- binding normalized to PSGL-1 [4]: 1.63
- binding normalized to PSGL-1 [5]: 0.13
- binding normalized to PSGL-1 [6]: 1.38
- binding normalized to PSGL-1 [7]: 1.44
- binding normalized to PSGL-1 (SulfoTyr C4 peptide): 1.41
- A450nm [8]: 1.69 A450nm
B1: 07G01 (antibody, V domains shown)
VH: EVKLLESGGGLVRPGGSLRLSCAASGFTLSNYAMSWVRQAPGKGLEWVSAISGVGITTYYADSVKGRFIISRDNSKNTVYLQMNSLRAEDTAVYYCAKSRGGGAFDYWGQGTLVTVSS
VL: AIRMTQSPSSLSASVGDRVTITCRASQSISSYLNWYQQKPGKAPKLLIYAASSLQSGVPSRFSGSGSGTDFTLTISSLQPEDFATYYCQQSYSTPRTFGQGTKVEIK

- binding result [1]: no binding (tested: 20 nM)
- A450nm, 20 nM mAb [3]: 2.6 A450nm
- binding normalized to PSGL-1 (SulfoCCK biotin peptide): 0.66
- binding normalized to PSGL-1 [4]: 0.79
- binding normalized to PSGL-1 [5]: 0.03
- binding normalized to PSGL-1 [6]: 0.6
- binding normalized to PSGL-1 [7]: 0.49
- binding normalized to PSGL-1 (SulfoTyr C4 peptide): 0.89
- binding normalized to PSGL-1 [9]: 1.2
- A450nm [8]: 1.78 A450nm
B3: 08C07 (antibody, IgG4, V domains shown)
VH: QMQLVQSGAEVKKPGSSVKVSCKASGGTFSNYGMIWVRQAPRQGLEWMGRIIPFLDKPDYSEKFQDRITFTADKSTSTVYMELRGLRSDDTAVYYCAKWTSTLQGITTGQTWGQGTLVTVSS
VL: QPVLTQPPSASGTPGQRVTISCSGSSSNIGGSYMYWYQQFPGTAPKLLIYRNNQRPSGVPDRFSGSKSGTSASLAISGLRSEDEADYYCAAWDVSLSGWVFGGGTKLTVL

Second part, the binder before the results:

B2: 03B04 (antibody, IgG4, V domains shown)
VH: EVKLLESGGGLVKPGGSLRLSCAASGFAFSRYTMNWVRQAPGKGLEWVSSISSSSSYIYYADSVKGRFTISRDNAKNSLVLQMNSLRPEDTAVYYCARGGIAANDYWGQGTLVTVSS
VL: EIVMTQTPLSLPVTLGQPASISCRSSRNLVHYDGNTYLSWFHQRPGQPPRRLIYKISNRESGVPDRFSGSGSGTDFTLKISRVEAEDVGVYYCLQHTHWPWTFGPGTKVEIK
- A450nm, 20 nM mAb [1]: 0.01 A450nm
- binding result [1]: no binding (tested: 20 nM)
- EC50 [2]: 5.1 nM
- A450nm, 20 nM mAb [3]: 2.5 A450nm
- EC50 [3]: 1.7 nM
- binding normalized to PSGL-1 (SulfoCCK biotin peptide): 0.13
- binding normalized to PSGL-1 [4]: 0.01
- binding result [4]: no binding (tested: 50 nM)
- binding normalized to PSGL-1 [5]: -0.07
- binding result [5]: no binding (tested: 50 nM)
- binding normalized to PSGL-1 [6]: 0.56
- binding normalized to PSGL-1 [7]: 0.57
- binding normalized to PSGL-1 (SulfoTyr C4 peptide): 0.41
- binding normalized to PSGL-1 [9]: 0.42
- A450nm [8]: 1.7 A450nm

B4: 02E01 (antibody, IgG4, V domains shown)
VH: EVQLVQSGGGVVQPGRSLRLSCAASGFTFSRYGMHWVRQAPGKGLEWVSVISYDGNNKYYADSVKGRFTISRDNSKNTVYLQMNSLRADDTAVYYCARNVPVTNFGYWGQGTLVTVSS
VL: QSALTQPASVSGSPGQSITISCTGTSSDVGGYNYVSWYQQHPGKAPKLMIYDVSKRPSGVSNRFSGSKSGNTASLTISGLQAEDEADYYCSSYTRPGRVFGGGTKLTVL
- A450nm, 20 nM mAb [1]: 0.03 A450nm
- binding result [1]: no binding (tested: 20 nM)
- A450nm, 20 nM mAb [2]: 2.07 A450nm
- A450nm, 20 nM mAb [3]: 2.5 A450nm
- binding normalized to PSGL-1 (SulfoCCK biotin peptide): 0.5
- binding normalized to PSGL-1 [4]: 0.56
- binding normalized to PSGL-1 [5]: -0.18
- binding result [5]: no binding (tested: 50 nM)
- binding normalized to PSGL-1 [6]: 0.87
- binding normalized to PSGL-1 [7]: 1.13
- binding normalized to PSGL-1 (SulfoTyr C4 peptide): 0.94
- binding normalized to PSGL-1 [9]: 1.48

B5: 02E06 (antibody, IgG4, V domains shown)
VH: QVQLVQSGAEVKKPGASVKVSCKASGYSFTDYYMHWVRQAPGQGLEWMGWMNPNSGNTGYAQTFQGRVTMTRNTSISTAYMELSSLRSEDTAVYYCARGRRVRGTPTFEYWGQGTLVTVSS
VL: QSVVTQPPSASGTPGQRVTISCSGRSSNIGSYTVNWFQHLPGTGPKLLIYGNNQRPSGVPGRFSGSKSGTSASLAISGLQSNDEATYYCAAWDDSLNGHYVFGTGTKVTVL
- A450nm, 20 nM mAb [1]: 0.12 A450nm
- EC50 [2]: > 500 nM
- A450nm, 20 nM mAb [3]: 2.6 A450nm
- EC50 [3]: 0.17 nM
- binding normalized to PSGL-1 (SulfoCCK biotin peptide): 1.21
- binding normalized to PSGL-1 [4]: 1.19
- binding normalized to PSGL-1 [5]: 0.2
- binding normalized to PSGL-1 [6]: 1.24
- binding normalized to PSGL-1 [7]: 1.34
- binding normalized to PSGL-1 (SulfoTyr C4 peptide): 1.28
- A450nm [8]: 1.8 A450nm
